The record followed here is patent publication US20250145691A1 (University of Texas, published 2025).

In experiment [1] the target is T1, NTD (UniProt P0DTC2 14-303).
T1 construct: domain: NTD; also called N-terminal domain
Put plainly: ELISA and biolayer interferometry (BLI). Background: ELISA stands for enzyme-linked immunosorbent assay.

For experiment [2], the target named is RBD (SARS-CoV-2, UniProt P0DTC2 319-591). Nature of the experiment: ELISA and biolayer interferometry (BLI).

B1: antibody SC45 (antibody, V domains shown)
VH: QVQLQESGPGLVKSSETLSLTCTVSGGSISSYYWSWIRQPPGKGLEWIGCIYSSGSTNYNPSLKSRVTISVDSSKNQFSLRLNSVTAADTAVYYCARHKGTDFWSGYSFTPRGGWFDPWGQGALVSVSS
VL: DIQMTQSPSSLSASVGDRVTITCRASQSISSYLNWYQQKPGKAPKLLIYGASNLQSGVPSRFSGSGSETDFTLTISSLQPEDFASYYCQQSHSIPVTFGQGTKLEIK
Regarding B1, the binding result in experiment [1] and in experiment [2] was “no binding” in each case.
